{
  "source": "patent US20190077863A1",
  "about": "(AERPIO PHARMACEUTICALS, published 2019)",
  "binders": {"B1": {"name": "mouse/human chimeric antibody HC0LC0 (antibody, human IgG4 S228P, kappa, V domains shown)", "VH": "EVQLVETGGGLVQPKGSMKLSCAASGFTFNANAMNWIRQAPGKGLEWVARIRTKSNNYATYYAGSVKDRFTISRDDAQNMLYLQMNDLKTEDTAMYYCVRDYYGSSAWITYWGQGTLVTVSA", "VL": "DIVMTQSHKFMSTSVGDRVSITCKASQHVGTAVAWYQQKPDQSPKQLIYWASTRHTGVPDRFTGSGSGTDFTLTISNVQSEDLADYFCQQYSSYPFTFGSGTKLEIKR", "notes": "Murine variable domains of R15E6 on human IgG4 (S228P) and kappa constant domains, expressed in CHO cells; also called VH0-VL0"}, "B2": {"name": "humanized R15E6 variant HC2LC1 (antibody, human IgG4 S228P, kappa, V domains shown)", "VH": "EVQLVESGGGLVQPGGSLRLSCAASGFTFNANAMNWVRQAPGKGLEWVGRIRTKSNNYATYYAGSVKDRFTISRDDSKNSLYLQMNSLKTEDTAVYYCVRDYYGSSAWITYWGQGTLVTVSS", "VL": "DVVMTQSPSFLSASVGDRVTITCKASQHVGTAVAWYQQRPGKAPKLLIYWASTRHTGVPSRFSGSGSGTEFTLTISSLQPEDFATYFCQQYSSYPFTFGGGTKLEIKR", "notes": "Human IgG4 (S228P) / kappa, expressed in CHO cells; Signal peptides left out by range; also called VH2-VL1"}, "B3": {"name": "humanized R15E6 variant HC2LC2 (antibody, human IgG4 S228P, kappa, V domains shown)", "VH": "B2 VH", "VL": "DIVMTQSPDSLAVSLGERATINCKASQHVGTAVAWYQQKPGQPPKLLIYWASTRHTGVPDRFSGSGSGTDFTLTISSLQAEDVAVYYCQQYSSYPFTFGQGTKLEIKR", "notes": "Human IgG4 (S228P) / kappa, expressed in CHO cells; Signal peptides left out by range; also called VH2-VL2"}, "B4": {"name": "humanized R15E6 variant HC3LC4 (antibody, human IgG4 S228P, kappa, V domains shown)", "VH": "B2 VH with G16R, A23T, S80I, L81A", "VL": "B3 VL with G41E, Q100G, L104V", "notes": "Human IgG4 (S228P) / kappa, expressed in CHO cells; Signal peptides left out by range; also called VH3-VL4"}, "B5": {"name": "humanized R15E6 variant HC2LC4 (antibody, human IgG4 S228P, kappa, V domains shown)", "VH": "B2 VH", "VL": "B3 VL with G41E, Q100G, L104V", "notes": "Human IgG4 (S228P) / kappa, expressed in CHO cells; Signal peptides left out by range; also called VH2-VL4"}, "B6": {"name": "humanized R15E6 variant HC2LC3 (antibody, human IgG4 S228P, kappa, V domains shown)", "VH": "B2 VH", "VL": "B2 VL with V2I, V3Q, S9F, F10S, R39K, E70D", "notes": "Human IgG4 (S228P) / kappa, expressed in CHO cells; Signal peptides left out by range; also called VH2-VL3"}, "B7": {"name": "humanized R15E6 variant HC1LC2 (antibody, human IgG4 S228P, kappa, V domains shown)", "VH": "B2 VH with R19K, P41S, S80T, L81A, V95A", "VL": "B3 VL", "notes": "Human IgG4 (S228P) / kappa, expressed in CHO cells; Signal peptides left out by range; also called VH1-VL2"}, "B8": {"name": "humanized R15E6 variant HC1LC4 (antibody, human IgG4 S228P, kappa, V domains shown)", "VH": "B2 VH with R19K, P41S, S80T, L81A, V95A", "VL": "B3 VL with G41E, Q100G, L104V", "notes": "Human IgG4 (S228P) / kappa, expressed in CHO cells; Signal peptides left out by range; also called VH1-VL4"}},
  "note": "Positions count from the first letter of the chain named. In names and notes the source's numbering stands.",
  "data": [
    {"biological_target": "T1, Cynomolgus VE-PTP (Cyno PTP-β) containing first eight FN3 repeats with C-terminal His10 tag (Cyno Beta ½ … (cynomolgus, UniProt P23467 25-817 (human entry)))", "T1 construct": "Produced in HEK293 cells; it was not cut off; also called Cyno VE-PTP", "T1 chain": "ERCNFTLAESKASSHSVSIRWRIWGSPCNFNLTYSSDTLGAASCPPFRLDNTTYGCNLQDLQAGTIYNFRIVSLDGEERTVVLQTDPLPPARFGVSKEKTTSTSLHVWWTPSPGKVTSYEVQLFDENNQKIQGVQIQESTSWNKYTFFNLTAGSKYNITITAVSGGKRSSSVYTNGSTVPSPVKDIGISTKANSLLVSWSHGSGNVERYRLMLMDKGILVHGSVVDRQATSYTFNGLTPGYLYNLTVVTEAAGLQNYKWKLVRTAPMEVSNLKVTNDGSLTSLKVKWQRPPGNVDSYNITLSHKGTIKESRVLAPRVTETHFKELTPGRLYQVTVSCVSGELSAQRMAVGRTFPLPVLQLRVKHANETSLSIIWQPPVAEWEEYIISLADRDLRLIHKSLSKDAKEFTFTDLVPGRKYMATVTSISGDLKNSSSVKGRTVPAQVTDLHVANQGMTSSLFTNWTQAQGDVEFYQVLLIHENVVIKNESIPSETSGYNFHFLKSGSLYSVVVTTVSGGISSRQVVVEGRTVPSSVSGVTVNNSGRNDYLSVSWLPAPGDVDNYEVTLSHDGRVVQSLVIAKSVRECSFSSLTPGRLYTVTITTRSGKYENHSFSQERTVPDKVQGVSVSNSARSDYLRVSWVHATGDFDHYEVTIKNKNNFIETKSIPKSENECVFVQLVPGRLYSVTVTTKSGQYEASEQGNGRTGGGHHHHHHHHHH", "assay": "ELISA, coated antigen", "experimental": "(§1) HPTP-β, cyno PTP-β, and HPTP-η proteins were coated onto ELISA plates in coating buffer (pH 9.4). Each protein was prepared as a 1 μg/mL protein stock in 50 mM carbonate-bicarbonate. The coated proteins were aliquoted at a volume of 100 μL/well into sterile, clear, polystyrene, flat bottom 96-well plates. The plates were incubated overnight at 4° C. After overnight incubation, the plates were washed 3× with 200 μL/well of 1×PBS-T (PBS with 0.05% Tween 20). The immunizing protein was human VE-PTP (HPTP-β). The plates were then blocked with 200 μL/well of 5% blotting grade blocker non-fat dry milk in PBS-T and incubated for 1 hr at room temperature.\n(§2) Primary antibody samples were prepared for the humanized variants and the negative control, anti-hCD20-hIgG4S228P, using 1 μg/well in 5% blotting grade blocker non-fat dry milk in PBS. Samples were tested in triplicates. The Fab antibody fragments were treated as the IgG antibodies. The plates were then washed 3× with PBS-T and 100 μL of primary antibody preparation was added in each well. The plates were then incubated for 1 hr at room temperature.\n(§3) Then, […] Ultra TMB-ELISA was added in each well, and the plate was allowed to develop for 5 min at room temperature. After 5 min, 50 μL of 2 M sulfuric acid was added to each well to stop the reaction. The plates were then analyzed on a plate reader at an absorbance wavelength of 450 nm.", "values": [
      {"binder": "B1", "binding result": "no binding (tested: <=0.2; 1 µg/well)"},
      {"binder": "B2", "binding result": "no binding (tested: <=0.2; 1 µg/well)"},
      {"binder": "B3", "binding result": "no binding (tested: <=0.2; 1 µg/well)"},
      {"binder": "B4", "binding result": "no binding (tested: <=0.2; 1 µg/well)"},
      {"binder": "B5", "binding result": "no binding (tested: <=0.2; 1 µg/well)"},
      {"binder": "B6", "binding result": "no binding (tested: <=0.2; 1 µg/well)"},
      {"binder": "B7", "binding result": "no binding (tested: <=0.2; 1 µg/well)"},
      {"binder": "B8", "binding result": "no binding (tested: <=0.2; 1 µg/well)"}
    ]},
    {"biological_target": "T2, Human HPTP-η with C-terminal His10 tag (Human HPTP-η ECD) (human, UniProt Q12913 36-975)", "T2 construct": "Produced in HEK293 cells; it was not cut off; also called Human PTPη; human PTP-η", "T2 sequence": "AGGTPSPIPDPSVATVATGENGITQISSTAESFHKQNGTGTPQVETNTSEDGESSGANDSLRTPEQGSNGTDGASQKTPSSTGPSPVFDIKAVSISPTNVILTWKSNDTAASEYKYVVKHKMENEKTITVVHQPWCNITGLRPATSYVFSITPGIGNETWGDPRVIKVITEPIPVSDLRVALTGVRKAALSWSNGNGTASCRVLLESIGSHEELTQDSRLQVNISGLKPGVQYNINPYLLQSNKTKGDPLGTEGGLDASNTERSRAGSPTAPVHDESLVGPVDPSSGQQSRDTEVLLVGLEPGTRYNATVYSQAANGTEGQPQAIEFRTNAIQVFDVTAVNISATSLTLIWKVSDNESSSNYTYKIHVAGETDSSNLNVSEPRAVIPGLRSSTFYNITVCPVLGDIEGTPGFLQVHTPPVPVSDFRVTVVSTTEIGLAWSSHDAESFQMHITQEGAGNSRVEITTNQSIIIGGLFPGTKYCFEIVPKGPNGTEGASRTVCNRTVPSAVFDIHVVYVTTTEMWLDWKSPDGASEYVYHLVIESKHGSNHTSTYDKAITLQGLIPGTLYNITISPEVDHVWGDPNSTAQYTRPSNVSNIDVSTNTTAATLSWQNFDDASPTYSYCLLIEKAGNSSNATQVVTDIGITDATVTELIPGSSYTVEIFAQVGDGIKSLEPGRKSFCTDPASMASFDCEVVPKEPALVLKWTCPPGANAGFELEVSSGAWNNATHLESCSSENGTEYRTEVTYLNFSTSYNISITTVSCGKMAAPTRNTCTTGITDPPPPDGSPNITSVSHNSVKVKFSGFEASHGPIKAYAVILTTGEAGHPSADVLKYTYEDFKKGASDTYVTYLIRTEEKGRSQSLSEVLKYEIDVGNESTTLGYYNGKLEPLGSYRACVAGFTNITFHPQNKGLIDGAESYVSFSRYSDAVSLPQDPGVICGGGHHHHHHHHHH", "assay": "ELISA, coated antigen", "experimental": "as §1, §2, §3", "values": [
      {"binder": "B1", "binding result": "no binding (tested: <=0.2; 1 µg/well)"},
      {"binder": "B2", "binding result": "no binding (tested: <=0.2; 1 µg/well)"},
      {"binder": "B3", "binding result": "no binding (tested: <=0.2; 1 µg/well)"},
      {"binder": "B4", "binding result": "no binding (tested: <=0.2; 1 µg/well)"},
      {"binder": "B5", "binding result": "no binding (tested: <=0.2; 1 µg/well)"},
      {"binder": "B6", "binding result": "no binding (tested: <=0.2; 1 µg/well)"},
      {"binder": "B7", "binding result": "no binding (tested: <=0.2; 1 µg/well)"},
      {"binder": "B8", "binding result": "no binding (tested: <=0.2; 1 µg/well)"}
    ]}
  ]
}
